# Target: INF1 expressed in planta (FMV 35S promoter, PR1a signal peptide - INF1) (Phytophthora infestans (US-8 genotype))
# Experiment: cell-based or functional assay
substance,measurement,value
Nhr1 expressed from the cosmid Nhr1 clone (tobacco genomic DNA in binary cosmid 04541),"necrosis percentage (average of 31 leaves), 78 hai",11%
same,"necrosis percentage (average of 31 leaves), 94 hai",19.8%
same,"necrosis percentage (average of 31 leaves), 102 hai",26%
same,"necrosis percentage (average of 31 leaves), 120 hai",28.9%
same,"necrosis percentage (average of 31 leaves), 140 hai",31%

# Source: patent US20030152975A1
